Laboratory results published in article PMC12000397.

Legend:
[1] = molecular target: Grp94 N91C labeled with Alexa Fluor 555 (donor) and Alexa Fluor 647 (acceptor) (mouse) (UniProt P08113); test: other fluorescence titration; bulk FRET of 125 nM donor- and acceptor-labeled Grp94 N91C, BiP NBD titrated, apo conditions; 30 °C, 25 mM Tris pH 7.5, 50 mM KCl, 1 mM BME, 1 mg/mL BSA; single-site fit; apparent
[2] = molecular target: FITC-labeled BiP NBD (mouse); test: fluorescence polarisation; 50 nM FITC-labeled BiP NBD constructs, Grp94 or Grp94 MD titrated; 25 mM Tris pH 7.5, 50 mM KCl, 1 mM ADP (hexokinase-treated), 1 mM DTT; single-site binding fit
[3] = molecular target: FITC-labeled BiP_(D187A) NBD (mouse); test: as above
[4] = molecular target: FITC-labeled BiP_(I191A) NBD (mouse); test: as above

Chain of Grp94 (residues 72-765) with the charged-linker removed (Δ287-328) (P08113 other isoform, or with tags, fused parts or gaps mutant): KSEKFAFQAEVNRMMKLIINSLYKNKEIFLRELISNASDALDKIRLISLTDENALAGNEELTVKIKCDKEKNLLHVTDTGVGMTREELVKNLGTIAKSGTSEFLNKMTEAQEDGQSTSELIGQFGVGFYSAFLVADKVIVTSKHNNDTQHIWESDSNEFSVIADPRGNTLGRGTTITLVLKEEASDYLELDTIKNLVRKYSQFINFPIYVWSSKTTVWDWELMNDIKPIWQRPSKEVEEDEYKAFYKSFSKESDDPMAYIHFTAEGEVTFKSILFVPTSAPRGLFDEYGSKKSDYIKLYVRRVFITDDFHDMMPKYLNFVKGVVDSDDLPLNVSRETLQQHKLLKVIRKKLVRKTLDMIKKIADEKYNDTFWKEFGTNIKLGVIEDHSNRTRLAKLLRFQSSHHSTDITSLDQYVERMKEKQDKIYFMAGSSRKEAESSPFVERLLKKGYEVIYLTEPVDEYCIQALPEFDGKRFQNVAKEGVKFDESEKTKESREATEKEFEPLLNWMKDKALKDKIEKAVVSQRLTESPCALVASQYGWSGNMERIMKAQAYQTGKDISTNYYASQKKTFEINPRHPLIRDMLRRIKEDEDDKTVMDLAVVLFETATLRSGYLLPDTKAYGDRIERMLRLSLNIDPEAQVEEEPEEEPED
Chain of Grp94 N91C labeled with Alexa Fluor 555 (donor) and Alexa Fluor 647 (acceptor) (mouse) (P08113 other isoform, or with tags, fused parts or gaps Δ287-328 | N91C | N91C): as the sequence (P08113 other isoform, or with tags, fused parts or gaps mutant) above, with N20C counted along it

Kd [1] [µM] | Kd [2] [µM] | Kd [3] [µM] | Kd [4] [µM] | Substance
0.67 | – | – | – | BiP NBD (domain or fragment)
– | 1.4 | 8.2 | 9 | Grp94 (residues 72-765) with the charged-linker removed (Δ287-328) (from UniProt P08113 72-765) (natural protein)
